The data set is described as follows: soluble on expression in E. coli; label from the status in PepcDB or PDB records.
For the sequence “MMEGLDDGPDFLSEEDRGLKAINVDLQSDAALQVDISDALSERDRVNFTVHTKSSLPNFKQNEFSVVRQHEEFIWLHDSFVENEDYAGYIIPPAPPRPDFDASREKLQKLGEGEGSMTKEEFTKMKQELEAEYLAIFKKTVAMHEVFLCRVAAHPILRKDLNFHVFLEYNQDLSVRGKNKKEKLEDFFKNMVKSADGVIVSGVKDVDDFFEHERTFLLEYHNRVKDASAKSDRMTRSHKSAADDYNRIGSSLYALGTQDSTDICKFFLKVSELFDKTRKIEARVSADEDLKLSDLLKYYLRESQAAKDLLYRRSRSLVDYENANKALDKARAKNKDVLQAETSQQLCCQKFEKISESAKQELIDFKTRRVAAFRKNLVELAELELKHAKGNLQLLQNCLAVLNGDT”, the “soluble on expression in E. coli” value is recorded as “soluble”. For “MGSDKIHHHHHHMNIKQLHYFLVVAEEKQITAAAKRLYIAQPPLSYQLKQLEKELGAQLFKRTAHGIELTDAGQTLQSYASEILSLAQNAKNQVHKTISGELGTVAMGIVSSSTGYMPIAAFKELTQFYPEINFDIYEDNTFGVLDKLEKKTIDMGIVRTPYNRTGLNAKTLTTEKMMAVTNDITLLHKKELRIEDLKDQPLIIYRRFEEMFNQTFAHHGIKPFYAMKCDDSRTAITWAKQNMGLALVPESIATTYAKNKMIAVKHVNWITHLQLVWRKDQIVTPLMKKIISLVK”, the “soluble on expression in E. coli” value is “not soluble”. Turning to “MGSDKIHHHHHHMKLVFRWYGEKHDTVTLEQIRQIPGVEGVVGALFDIPVGEVWPFEEIMKLKETVEKAGLKLEVIESVNVHEDIKLGLPTRDRYIENYKKTIRNLAKAGVKVVCYNFMPVFDWMRTDLHKKLPDGSETMEYDHRLIEGVTPDELIKRVKEGSQGFVLPGWEWDRLEKLRETFELYKNVDEEKLFENLVYFLERVIPVCEECDVKLAIHPDDPPWSIFGLPRIITNKENIERMLKAVDSPYNGITFCMGSLGANPENNIPEMIRYFGKMGRIHFAHVRNLKFTGEKSFYETAHPSFCGSHDLFEVMKAFHDIGYEGYIRPDHGRLIWGEKARPGYGLYDRALGATYILGLWEAIDKMKKRYC”, the “soluble on expression in E. coli” value is given as “not soluble”. On to “MANTLFDKIWDAHVVQKVEEGPTQLYIDRLYCHEVTSPQAFAGLRARGVKVFRPDHVYCMPDHNTPTHDQDKPIEDPVSKTQVDTLAKNAKDFGLAHFGMMDKRNGIIHVVGPERGLTLPGMTIVCGDSHTSTHGAMGAVAFGIGTSEVEMVLASQCILQSRPKT”, for which the “soluble on expression in E. coli” value is on record as “not soluble”.

Regarding “MDMSLAEDAQETMATLAPDRFFFMSPYRSFTTSGCFARYTEPAVAGDSPDSPFQQKLRQQFAEAKSQGIANPILVGAIPFDTRQPSSLFIPMAWQSFSRQQKQRTARYFTDHQSLTVTARKAIPEQDAFEAMVARAAMLTATPDVDKVVLSRLIDITTDVAVDSGALLERLVAQNPVSYNFHVPLADGGVLLGASPELLLRKEGERFSSLPLAGSARRQPDDVLDREAGNRLLASQKDRHEHELVTQAMKQILRDRSTELQLPSSPQLITTPTLWHLGTPFEGKANAGENALTLACLLHPTPALSGFPHQVAKKLIAELEPFDRELFGGIVGWCDAEGNGEWVVTIRCAKLHGNQVRLFAGAGIVPASSPVGEWRETGVKLSTMLNVFGLH”, the “soluble on expression in E. coli” value is listed as “soluble”. Regarding “MAHHHHHHMSTTNPTGETTEWDDLQRKYGNLPPLQKEVKEEEIYLNKLEKLEGVNPLEKKNLHELTLLEENCVDEDYLKIIEKHKANRIKEINRSRALDVFGTVYEISKDNFLTEVNEASKRNPLGEHGGRSMESTRGDEDLEEDEEQGVAASSTEGTEGTHVVIHLYSDNVLACKVINSILIQMARKHKYVKFTKGVYNRIVENYPESKLPTLLIYYNGTCIHQICNLLNNIKGGMNNLSLKTFERLMEKYNILRYPSSWMNSRQSVSDHSVNSSDVDSEEGSRYAEKGTRVRTHKQYTSFNMFDSKYTSRDYSSDEDRELKSRGYASSMLDKKVSRNEL”, the “soluble on expression in E. coli” value is “not soluble”. With “MGSDKIHHHHHHMGILYLKEHTSCYNYTKCIREGFLYHKFCDIEMDEEINETDSILFVIEGELEMSCNGKKMKLLAGNMICFGRGSRFKIHSRGKGSIVIAQFDNAVQSCEKISFAQLNSLDSPGDKIYPLEIRDRLHLFLKLLISYLEDGANCVHFHETKLKELFWSIRFYYTKTEQAAFFHPILGNDYDFKKKIFNNYRNARTVKELAGLCGTPLSSFKRKFLKEFREPAGNWLQKQINNIIKYKLADEDIPIGNIAEELHFSSHPQFCRYCKRNFGYTPGEWRKLLKNRDKTPGKLSGRV”, the “soluble on expression in E. coli” value is given as “not soluble”.

Values taken from the DeepSol protein solubility set.
